Target: specific cell surface receptors on mouse embryo fibroblasts

B1: mouse β-galactoside binding protein (GBP), natural or recombinant, complexed or non-complexed form not told (ligand)
chain: ACGLVASNLNLKPGECLKVRGEVASDAKSFVLNLGKDSNNLCLHFNPRFNAHGDANTIVCNTKEDGTWGTEHREPAFPFQPGSITEVCITFDQADLTIKLPDGHEFKFPNRLNMEAINYMAADGDFKIKCVAFE
modifications: 125I label in the receptor binding assays
growth inhibition of synchronous mouse embryo fibroblasts (cell count): 100%
